PMC10328077 (2023)

B1: FH402Y, isolated from plasma of FH402Y homozygous healthy donors (natural protein)
chain: EDCNELPPRRNTEILTGSWSDQTYPEGTQAIYKCRPGYRSLGNVIMVCRKGEWVALNPLRKCQKRPCGHPGDTPFGTFTLTGGNVFEYGVKAVYTCNEGYQLLGEINYRECDTDGWTNDIPICEVVKCLPVTAPENGKIVSSAMEPDREYHFGQAVRFVCNSGYKIEGDEEMHCSDDGFWSKEKPKCVEISCKSPDVINGSPISQKIIYKENERFQYKCNMGYEYSERGDAVCTESGWRPLPSCEEKSCDNPYIPNGDYSPLRIKHRTGDEITYQCRNGFYPATRGNTAKCTSTGWIPAPRCTLKPCDYPDIKHGGLYHENMRRPYFPVAVGKYYSYYCDEHFETPSGSYWDHIHCTQDGWSPAVPCLRKCYFPYLENGYNQNYGRKFVQGKSIDVACHPGYALPKAQTTVTCMENGWSPTPRCIRVKTCSKSSIDIENGFISESQYTYALKEKAKYQCKLGYVTADGETSGSITCGKDGWSAQPTCIKSCDIPVFMNARTKNDFTWFKLNDTLDYECHDGYESNTGSTTGSIVCGYNGWSDLPICYERECELPKIDVHLVPDRKKDQYKVGEVLKFSCKPGFTIVGPNSVQCYHFGLSPDLPICKEQVQSCGPPPELLNGNVKEKTKEEYGHSEVVEYYCNPRFLMKGPNKIQCVDGEWTTLPVCIVEESTCGDIPELEHGWAQLSSPPYYYGDSVEFNCSESFTMIGHRSITCIHGVWTQLPQCVAIDKLKKCKSSNLIILEEHLKNKKEFDHNSNIRYRCRGKEGWIHTVCINGRWDPEVNCSMAQIQLCPPPPQIPNSHNMTTTLNYRDGEKVSVLCQENYLIQEGEEITCKDGRWQSIPLCVEKIPCSQPPQIEHGTINSSRSSQESYAHGTKLSYTCEGGFRISEENETTCYMGKWSSPPQCEGLPCKSPPEISHGVVAHMSDSYQYGEEVTYKCFEGFGIDGPAIAKCLGEKWSHPPSCIKTDCLSLPSFENAIPMGEKKDVYKAGEQVTYTCATYYKMDGASNVTCINSRWTGRPTCRDTSCVNPPTVQNAYIVSRQMSKYPSGERVRYQCRSPYEMFGDEEVMCLNGNWTEPPQCKDSTGKCGPPPPIDNGDITSFPLSVYAPASSVEYQCQNLYQLEGNKRITCRNGQWSEPPKCLHPCVISREIMENYNIALRWTAKQKLYSRTGESVEFVCKRGYRLSSRSHTLRTTCWDGKLEYPTCAKR
B2: recombinant N-terminal fragment apoE2(1–165) (domain or fragment)
chain: KVEQAVETEPEPELRQQTEWQSGQRWELALGRFWDYLRWVQTLSEQVQEELLSSQVTQELRALMDETMKELKAYKSELEEQLTPVAEETRARLSKELQAAQARLGADMEDVCGRLVQYRGEVQAMLGQSTEELRVRLASHLRKLRKRLLRDADDLQKCLAVYQAG
modifications: NT647 dye (Monolith RED-NHS labelling kit) in the MST; unlabelled in the ELISA and the cross-linking

Assays:
[1] = biological target: B2; test: MST
[2] = biological target: FH402H, isolated from plasma of FH402H homozygous healthy donors (human, UniProt P08603 19-1231, Y402H); test: MST

Binder	Kd [1] [nM]	Kd [2] [nM]
B1	200	–
B2	–	400
